Biological target: SARS-CoV-2 Spike protein on VSV pseudotyped virus particles (Wuhan-1 isolate Spike sequence) (SARS-CoV-2) (UniProt P0DTC2)
Test: cell-based or functional assay

| Substance | IC50 in pseudovirus assays [µg/mL] |
| --- | --- |
| REGN10987 (antibody) | 0.45 |
| REGN10933 (antibody) | 0.67 |
